Experimental data taken from the supplement of paper PMC5998384.

Experiments:
[1] = tested on: HeLa Kyoto; experiment: solubility change mitosis vs G1/S (difference of NP-40 vs SDS log2 ratios) (log2 ratio difference); higher = more soluble in mitosis
[2] = tested on: HeLa Kyoto; experiment: thermal stability score vs G1/S (z-score of summed log2 fold changes over temperatures); higher = more thermally stable than in G1/S
[3] = tested on: HeLa Kyoto; experiment: solubility in G1/S (NP-40 vs SDS abundance) (log2 ratio); higher = more soluble; conditions: cell cycle stage: G1/S
[4] = tested on: HeLa Kyoto; experiment: melting temperature (median over replicates), in situ; higher = more thermally stable
[5] = cell cycle stage: early G1 (4.5 h after nocodazole release)
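For melting temperature (median over replicates), in situ in this document: HeLa Kyoto cells synchronized by double thymidine or nocodazole block, proteins quantified by TMT10plex mass spectrometry, three independent biological replicates.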
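For solubility change mitosis vs G1/S (difference of NP-40 vs SDS log2 ratios) in this document: synchronized HeLa Kyoto cells (double thymidine block for G1/S, nocodazole release for mitosis), protein amounts in NP-40 versus SDS lysates quantified by mass spectrometry, three biological replicates.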
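For solubility in G1/S (NP-40 vs SDS abundance) in this document: HeLa Kyoto cells arrested at G1/S by double thymidine block, proteins quantified by TMT10plex mass spectrometry in mild NP-40 versus SDS extracts, three biological replicates.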
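For thermal stability score vs G1/S (z-score of summed log2 fold changes over temperatures) in this document: synchronized HeLa Kyoto cells, proteins quantified by TMT10plex mass spectrometry, three biological replicates, mitosis taken 0.5 h after nocodazole release, G1/S directly after double thymidine block.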

| Sequence | solubility change mitosis (log2) [1] | thermal stability score [2, 5] | thermal stability score ([2]; cell cycle stage: mitosis) | solubility in G1/S (log2) [3] | melting temperature ([4]; cell cycle stage: G1/S) [°C] | melting temperature ([4]; cell cycle stage: mitosis) [°C] |
| --- | --- | --- | --- | --- | --- | --- |
| MEDDAPVIYGLEFQARALTPQTAETDAIRFLVGTQSLKYDNQIHIIDFDDENNIINKNVLLHQAGEIWHISASPADRGVLTTCYNRTSDSKVLTCAAVWRMPKELESGSHESPDDSSSTAQTLELLCHLDNTAHGNMACVVWEPMGDGKKIISLADNHILLWDLQESSSQAVLASSASLEGKGQLKFTSGRWSPHHNCTQVATANDTTLRGWDTRSMSQIYCIENAHGQLVRDLDFNPNKQYYLASCGDDCKVKFWDTRNVTEPVKTLEEHSHWVWNVRYNHSHDQLVLTGSSDSRVILSNMVSISSEPFGHLVDDDDISDQEDHRSEEKSKEPLQDNVIATYEEHEDSVYAVDWSSADPWLFASLSYDGRLVINRVPRALKYHILL [TSSC1] | -0.21 | -0.291 | -0.357 | 0.0334 | 51.9 | 52.9 |
| MDVLAEANGTFALNLLKTLGKDNSKNVFFSPMSMSCALAMVYMGAKGNTAAQMAQILSFNKSGGGGDIHQGFQSLLTEVNKTGTQYLLRMANRLFGEKSCDFLSSFRDSCQKFYQAEMEELDFISAVEKSRKHINTWVAEKTEGKIAELLSPGSVDPLTRLVLVNAVYFRGNWDEQFDKENTEERLFKVSKNEEKPVQMMFKQSTFKKTYIGEIFTQILVLPYVGKELNMIIMLPDETTDLRTVEKELTYEKFVEWTRLDMMDEEEVEVSLPRFKLEESYDMESVLRNLGMTDAFELGKADFSGMSQTDLSLSKVVHKSFVEVNEEGTEAAAATAAIMMMRCARFVPRFCADHPFLFFIQHSKTNGILFCGRFSSP [SERPINB6] | -0.136 | -1.49 | -2.35 | 0.174 | 55.8 | 56.1 |
| MRSAAKPWNPAIRAGGHGPDRVRPLPAASSGMKSSKSSTSLAFESRLSRLKRASSEDTLNKPGSTAASGVVRLKKTATAGAISELTESRLRSGTGAFTTTKRTGIPAPREFSVTVSRERSVPRGPSNPRKSVSSPTSSNTPTPTKHLRTPSTKPKQENEGGEKAALESQVRELLAEAKAKDSEINRLRSELKKYKEKRTLNAEGTDALGPNVDGTSVSPGDTEPMIRALEEKNKNFQKELSDLEEENRVLKEKLIYLEHSPNSEGAASHTGDSSCPTSITQESSFGSPTGNQMSSDIDEYKKNIHGNALRTSGSSSSDVTKASLSPDASDFEHITAETPSRPLSSTSNPFKSSKCSTAGSSPNSVSELSLASLTEKIQKMEENHHSTAEELQATLQELSDQQQMVQELTAENEKLVDEKTILETSFHQHRERAEQLSQENEKLMNLLQERVKNEEPTTQEGKIIELEQKCTGILEQGRFEREKLLNIQQQLTCSLRKVEEENQGALEMIKRLKEENEKLNEFLELERHNNNMMAKTLEECRVTLEGLKMENGSLKSHLQGEKQKATEASAVEQTAESCEVQEMLKVARAEKDLLELSCNELRQELLKANGEIKHVSSLLAKVEKDYSYLKEICDHQAEQLSRTSLKLQEKASESDAEIKDMKETIFELEDQVEQHRAVKLHNNQLISELESSVIKLEEQKSDLERQLKTLTKQMKEETEEWRRFQADLQTAVVVANDIKCEAQQELRTVKRKLLEEEEKNARLQKELGDVQGHGRVVTSRAAPPPVDEEPESSEVDAAGRWPGVCVSRTSPTPPESATTVKSLIKSFDLGRPGGAGQNISVHKTPRSPLSGIPVRTAPAAAVSPMQRHSTYSSVRPASRGVTQRLDLPDLPLSDILKGRTETLKPDPHLRKSPSLESLSRPPSLGFGDTRLLSASTRAWKPQSKLSVERKDPLAALAREYGGSKRNALLKWCQKKTQGYANIDITNFSSSWSDGLAFCALLHTYLPAHIPYQELNSQEKKRNLLLAFEAAESVGIKPSLELSEMLYTDRPDWQSVMQYVAQIYKYFET [SPECC1] | -0.147 | -1.45 | -1.95 | 0.148 | 52.2 | 51.5 |
| MADDLGDEWWENQPTGAGSSPEASDGEGEGDTEVMQQETVPVPVPSEKTKQPKECFLIQPKERKENTTKTRKRRKKKITDVLAKSEPKPGLPEDLQKLMKDYYSSRRLVIELEELNLPDSCFLKANDLTHSLSSYLKEICPKWVKLRKNHSEKKSVLMLIICSSAVRALELIRSMTAFRGDGKVIKLFAKHIKVQAQVKLLEKRVVHLGVGTPGRIKELVKQGGLNLSPLKFLVFDWNWRDQKLRRMMDIPEIRKEVFELLEMGVLSLCKSESLKLGLF [CMSS1] | 0.103 | 1.03 | 0.589 | -0.211 | 49.9 | 50.3 |
